Measurements taken from the nanobody polyreactivity screen of Harvey et al. (2022).

assay: yeast display, Sf9 membrane polyspecificity reagent, FACS + sequencing; frameworks hold sequencing errors
Summary of the method: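 A synthetic nanobody library was expressed on Saccharomyces cerevisiae BJ5465 by galactose induction for 36–48 hours. The library was stained for 1 hour at 4 °C with 10% biotinylated, detergent-solubilized Sf9 membrane reagent and enriched with streptavidin microbeads before FACS. Low and high (top ~1%) gates were set on anti-HA fluorescence for expression and streptavidin fluorescence for reagent binding, and each polyreactivity label reflects the gate of origin.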

Sequence | polyreactivity (PSR sort gate)
QVQLVESWAGLVQAGGSLRLSCAASGRTFAYNAMGGYRQAPGSERELVAAITWSGDSTYYADSVKGRFTISRDNAKKTVYLQMNSQKPEDTAVNYCAAGLVFHYYAPKSYYLGYDYWGQGTQVTVSS | low polyreactivity
QVQLVESWGCLVQAGGSLRLSCAASGFTFESNAMGWYRQAPGKERELVAAITSSGGRTYYADSVKGRFTISRVNAKNTVYLQMNSLNPEDSAVYYCAATGKAPRESGGVYSMDWGQGTQVTVSS | low polyreactivity
QVQLVESWGCLVQAGGSLRLSCAASRSTFLSYAMGWDRQAPGKERELVAAISWSGGRTYYADSVKGRFTISRDHAKNTVYLQMNSLKPDDSAVYYCNAGQGYRAPLYNLYDYWGQGTQVTVSS | low polyreactivity
QVQLVESWGGLDQAGGSLRLSCAASGIIFQYYAMGWYRQAPGKERELVAAISWSGGSTYYADSVKGRFTISRDNAKNTVYLQMNSLKPEDTAVYYCAARSRSYWPYEGDYWGQGSQVTVSS | low polyreactivity
QVQLVESWGGLDQAGGSLRLSCAASGRTIRRYAMGCYRQAPGKERELVASISTSGGSTNADSVKGRFTISRDNSKNTVYLQMNSLKPEDTAVYYCAVRYPRYVRNGDYWGQGTQVTVSS | high polyreactivity
QVQLVESWGGLVHAGGSLPLSCADSGITFFYYAMGWYRQAPGKEREFVAAISTSGGRTYYADSVKGRFTISRDNAKNTVYLQMNSLKPEDTAVYYCAARSRVPPAGPRYDYWGQGTQVTVSS | high polyreactivity
QVQLVESWGGLVQAGCSLRLSCAPSGSIFRTNAMGWYREAPGKQRELLAAITGSGGSTNYADSVKGRFTISRDNAKNTVYLQMNSLKPEDTADYYCAAEFGSLLSPYNYYYWGQGTQVTVSS | low polyreactivity
QVQLVESWGGLVQAGGNLRLSCAASGFIFTRYAMGWYRPAPGTERELVAAISTSGDRTYYADSVKGRFTISRDNAKNTVYLQMNSLKPEDTAVYYCAVVRPRSVVRYDYWGQGTQVTVSS | high polyreactivity
QVQLVESWGGLVQAGGRLRLSCAASGIIFHRNAMGWYRQAPGKQRELVAAISERGGSTYYADSVKGRFTISRDNAKNTVYLQMNSLKPEDTAVYYCIADGFYRGGYWGQGTQVTVSS | low polyreactivity
QVQLVESWGGLVQAGGSHRLSCAASGRTFGIYAMGWYRQAPGKERELVATISWRGGSTYYADSVKGRFTISRDNAKNTVYLQMNSLKPEDTAVYYCAAGYYPYWGQGTQVTVSS | low polyreactivity
QVQLVESWGGLVQAGGSLRLRCAASGSTSLGYAMGWYRQAPGKERELVASISWTGGGKYYADSVKGRFTISRDNAKNTVYLQMNSLKPEDTAVYYCAADLTGYHPYIYGYWGQVTQVTVSS | low polyreactivity
QVQLVESWGGLVQAGGSLRLSCAASGFIFRYYAMGWYRQAPGKERELVAAISWSGGSTYYADSVKGRFTISRDNAKYTVYLQMNSLKPVDTAVYYCAADKRGSVYLSSFWMDYWGQGSQVTVSS | low polyreactivity
QVQLVESWGGLVQAGGSLRLSCAASGFIMQWYAMGWDRQAPGKERELVAGISSGTSTYYADSVKGRFTISRDNAKNTVYFQMNSLKAEDTAVYYCTWFVFDPEDYWGQGTQVTVSS | low polyreactivity
QVQLVESWGGLVQAGGSLRLSCAASGFTFTGYAMGWYRQAPGKERELVAAISQSGGSTYADSVKGRFTISRDNAKNTVYLQMNSLKPEDTAVYYCAAVWFLLTEYDYWGQGTQVTVSS | low polyreactivity
QVQLVESWGGLVQAGGSLRLSCAASGIIFAAYAMGWYRQAPGKERELVATITSSGGSTFYADSVKGRFTISRDNAKNTVYLQMNSLKPEDTAVYYCAADTWGLWFWGPLFSKYGYWGQGTQVTVSS | low polyreactivity
QVQLVESWGGLVQAGGSLRLSCAASGIIFRYYAIGWYRKAPGKERELVAAISRSGARTYYADSVKGRFTISRDNAKNTVYLQMNSLKPEDTAVYYCATEPTSGRFYYWGQGTQVTVSS | high polyreactivity
QVQLVESWGGLVQAGGSLRLSCAASGRIFDRYAMGWYRQAPGKERELVASISSGGSTYYADSVKGRFTISRDNAKNTVYLQMNSLKPEDTAVYYCNAEARSRRYRYEYWGQGTQVTVSS | high polyreactivity
QVQLVESWGGLVQAGGSLRLSCAASGRIFSYYAMGWYRQAPGKERELVAAISRTGGTTYYADSVKGRFTISRDNAKNTVYLQMNSLKPEDTAVYYCNAVKAPYLRYDYWGQGTQVTVSS | high polyreactivity
QVQLVESWGGLVQAGGSLRLSCAASGRIFYGYAMAWYRQAPGKEREFVAAITVSAGSTYYADSVKGRFTISRDNAKNTVYLQMNSLKPEDTEVYYCAAKRYVYTSYRFVYWGQGTQVTVSS | low polyreactivity
QVQLVESWGGLVQAGGSLRLSCAASGSIFDVNAMGWYRQAPGKERELVAAISDSGGSTYYADSVKGRFTISRDNAKNTVYLQMNSLKPEDTAVYYCNADWSWYNYYDFDYWGQGTQVTVSS | low polyreactivity
QVQLVESWGGLVQAGGSLRLSCAASGSIFRGYAMGWYRQAPGKGRELVAAISWSGASTYYADSVKGRFTISRDNAKNTVYLKMNSLKPEDTAVYYCAAVQWTGYPFDYWGQGTQVTVSS | high polyreactivity
QVQLVESWGGLVQAGGSLRLSCAASGSTFASYVMGWSRQAPGKERELVAAISRSGGSTYYADSVKGRFTISRDNAKYTVYLQMNSLKPEDTAVYYCNAPYLIYKKGRYDYWGQGTQVTVSS | high polyreactivity

Sequence | polyreactivity (PSR sort gate)
QVQLVESWGGLVQAGGSLRLSCAASGSTFVINAMGWYSQAPGKERELVAAITWGGGRTYYADSVKGRFTISRDNAKNTVYLQMNSLKPEDTAVYYCAAVGSGWKGDYWGQGTQVTVSS | low polyreactivity
QVQLVESWGGLVQAGGSLRLSCAASGSTFVVIAMGWYRLAPGKERELVAAISTSGGTTYYADSVKGRFTISRDNAKNTVYLQMNSLKPEDTAVYYCAAGGKKRDDYWGQGTQVTVSS | high polyreactivity
QVQLVESWGGLVQAGGSLRLSCAASGSTLYQYDMGWYRHAPGKEREYLAAITTYGDSTYYADSVKGRFTISRDNAKNTVYLQMNSLKPEDTAVYYCNADVFKTVFYIDRYYYWGQGTQVTVSS | low polyreactivity
QVQLVESWGGLVQAGGTLRLSCAPSGYIFYFNDMGCYIQAPGKERELVAAITWSGTGTYYADSVKGRFTISRDNAKNTVYLQMNSLKPEDTAVYYCAAREWTSQDRQHNYWGQGTQVTVSS | low polyreactivity
QVQLVETAGGLVQAGGSLRLSCAASGSTFYTNAMGWYRQAPGKERELVAAISGSGGSTYYADSVKGRFTISRDNAKNTVYLQMISLKPEDTAVYNCAARSRYYDTRFDYWGQGTQVTVSS | low polyreactivity
QVQLVETAGGLVQAGGSLRLSCAASGSTIRYNVMGWYRQAPGKERELVAAITINGGSTNYADSVKGRFTISRDNAKNTVYLQMNSLKPEDTAVYYCAAAKSYRSGSWYEYWGQGTQVTVSS | high polyreactivity
QVQLVETCGGIVQAGGSLRLSCAASGITFALYAMGWYRESPGKERELVAAISYSGGRSYYADSVKGRFTISRDHAQNTVNLQMNSLKPEDTAVYYCAAGGSGSGPYGYGYWGQGTKVTVSS | high polyreactivity
QVQLVETGAGLVQAGGSLRLSCAASGILLFNAMGWNTQPPGKERELVAAINSGGSTNYADSVKGRFTISRDNAKNTVYFQMNSLIPEDTAVYFCAKDTPFTLRVWAEGGMDYWGHGTQVTVSS | low polyreactivity
QVQLVETGGGLDQAGGSLRLSCAASGRIFRKYVMGWYRQAPGKERELVAVISSGASTNYADSVKGRFTISRDNAKNTVYLQMNSLKPEDTAVYYCAKYGKYTWRQGGYWGQGTQVTVSS | high polyreactivity
QVQLVETGGGLFQAGGSLRLSCAASGSTFVYYAMGWYRQPPGKERELVAAISSGGNTKYADSVKGRFTISRDNAKNTFYLQMNSLKPEDTAVYYCARETQSYYDHDYWGQGTQVTLSS | low polyreactivity
QVQLVETGGGLVHAGGSLRLSCAASGRIFHINAMGWYRQAPGKERELVAAISSGGRTNYADSVKGRFTISRDNAKNTVYLQMNSLKPEDTAVYYCARQYTYGPNRWYGYWGQGTQVTVSS | high polyreactivity
QVQLVETGGGLVQAAGSLRLSSAASGSTFLANTMGWYRQEPGKEREFVAAITRRGGSTYYADSVKGRFTISRDNAKNTVYLQMNSLKPEDTAVYYCNADWYFQYPYDYWGQGTQVTVSS | low polyreactivity
QVQLVETGGGLVQAGGSFRLSCAASGGPFDTYVMGWYRQAPGKETELVAVITRGASTYYADSVKGRFTISRDNAKNTVYLQMNSLKPEETAVYYCAASFYSPDYYRFLYSFDYWGQGTQVTVSS | low polyreactivity
QVQLVETGGGLVQAGGSHRLSCAASGSIFGKNVIGRYRQAPGKERELVAAITSGASTYYADSVKGRFTISRDNAKNTVYLQINSLKPEDTAVYYCAARRWRKYYSGYNYWGQGTQVSVSS | high polyreactivity
QVQLVETGGGLVQAGGSHSLSCAASVRTVSSYARGWCRQAPGTERELVARITWSGGTYYADSVKGRFTISRDNAKNTVYLQMNRLKPEDTSVYYCAKRSYYWEYYYWGQGTQVTVSS | high polyreactivity
QVQLVETGGGLVQAGGSLGLSFAASGFIFSYYLMGWYRQAPGKERELVAAITTSGDSTYYADSVKGRFTISSDNAKNTVYLQINRLKPEDSAVYYCAADNYYETIWHYGYWGQGTQVTVSS | high polyreactivity
QVQLVETGGGLVQAGGSLRISCAASGSTFVDYDMGWYRQAPGKERELVAGITTGGSTNYADSVKGRFTISRDNAKNTVYLQMNSLKPEDTAVYYCNADSYPNLVPDYLYYWYEYWGQGTQVTVSS | low polyreactivity
QVQLVETGGGLVQAGGSLRLICAASGSTFQPYAMGWYRQAPGKEREFVATISGSAGSTYYADSVKGRFKISRDNAKNTVYLQMNSLKPEDTAVYYCNADSGWFGYDYWGQGTQVTVSS | low polyreactivity
QVQLVETGGGLVQAGGSLRLICAASGSTFQYYAMGWSRQAPGKERELVAAITHSGTRTYYADSVKGRFTISRDNAKNTVYLQMYRLKPEDTSVYYCAALYTWYRYYRLDYWGQGTQVTVSS | high polyreactivity
QVQLVETGGGLVQAGGSLRLSCAASAFTFASYAMGWYRQAPGKEREFVAAITRSGGSTYYADSVKGRFTISRDNAKNTVYLQMNSLKPEDTAVYYGAAQYHGGISQRLYYWGQGTQVTVSS | high polyreactivity
QVQLVETGGGLVQAGGSLRLSCAASGFIFPIYAMGWYRQATGKERELVAVISGSGGSTYYADSVKGRFTISRDNAKNTVYLQMNSLKPEDTAVYYCAARGRNVAGYKGGYWGQGTQVTVSS | low polyreactivity
